Columns and labels:
Assay in all cases: cell_activity
[1] = test system: ZF-VP64 (erbB-2 zinc finger) (synthetic); details: mCherry reporter induction, 293FT; positive control
[2] = test system: cMyc-dTALE (synthetic (Xanthomonas campestris pv. armoraciae Hax3 scaffold)); details: mCherry reporter, 293FT
[3] = test system: Sox2-dTALE (synthetic (Xanthomonas campestris pv. armoraciae Hax3 scaffold)); details: mCherry reporter; endogenous SOX2 mRNA up 5.5±0.1 fold (p227)
[4] = test system: Klf4-dTALE (synthetic (Xanthomonas campestris pv. armoraciae Hax3 scaffold)); details: mCherry reporter; endogenous KLF4 mRNA up 2.2±0.1 fold (p227)

erbB-2 promoter ZF site
activity [1]: 16 fold

c-MYC proximal promoter site
activity [2]: > 20 fold

SOX2 proximal promoter site
activity [3]: > 20 fold

KLF4 proximal promoter site
activity [4]: > 20 fold

— patent US20120270273
